Measured values reported in publication PMC3971453, “Crystallographic structure of the turbine C-ring from spinach chloroplast F-ATP synthase” (Bioscience Reports, 2014).

Molecular target: the molecule itself
Assay: crystal structure; crystals grown from the entire CF1FO-ATP synthase (18 mg/ml), vapour diffusion, 33% (v/v) PEG 550 MME, 0.05 M sodium acetate pH 4.3; only the c-ring in the crystal; molecular replacement with PDB 2W5J; refined to 6.0 Å

B1: subunit c of the CF1FO-ATP synthase from spinach chloroplasts (natural protein, spinach (Spinacea oleracea L.), UniProt P69447 1-81, looked up)
chain: MNPLIAAASVIAAGLAVGLASIGPGVGQGTAAGQAVEGIARQPEAEGKIRGTLLLSLAFMEALTIYGLVVALALLFANPFV
notes: ATP synthase subunit c (subunit III), chloroplastic, Spinacia oleracea; native protein from the tissue; the last four C-terminal amino acids are not visible in the electron density map; Native, untagged protein; Homo-oligomeric ring of 14 copies; also called subunit III; c-ring; source: the c-ring alone was left in the crystal; copies: 14
- stoichiometry N: 14
